Usually Kd stands for a measure of binding affinity in units of concentration. The term koff denotes a measure of how fast the partners let go of each other. The kon is a measure of how fast the partners come together. Lower therefore signals slow association.

One test addresses CHIKV p62-E1 (Chikungunya virus). Put plainly: SPR (Biacore T100), IgG captured by anti-human IgG, p62-E1 injected.
Test [1] deals with CHIKV strain NI 64 IbH 35 (West African genotype) (Chikungunya virus strain NI 64 IbH 35). The test is described as follows: cell-based or functional assay.
For test [2], the target named is CHIKV strain 99659 (Asian genotype, 2014 Caribbean) (Chikungunya virus strain 99659). Put plainly: cell-based or functional assay.
The target in test [3] is CHIKV strain RSU1 (Asian genotype) (Chikungunya virus strain RSU1). The test is described as follows: cell-based or functional assay.
Test [4] addresses CHIKV strain LR2006 OPY1 (LR) (ECSA genotype) (Chikungunya virus strain LR2006 OPY1). The test is described as follows: cell-based or functional assay.

B1: 8G18 (antibody, V domains shown)
VH: QVQLVQSGAQVKKPGSSVKVSCKPSGGTFNNNGISWVRQAPGQGLEWMGGIVPNFGTPTYGQDFQGRVTITADESTSTVFLELTRLRSDDTAVYFCARGRTAVTPMQLGLQFYFDFWGRGTLVTVSS
VL: QTVVTQEPSLTVSPGGTVTLTCSANSGAVTSDYYPNWFQQKPGQAPRALIYSASNKFSWTPARFSGSLLGGKAALTLSGAQPEDEAEYYCLVYSGDGVVFGGGTKLTV
Consider B1, for which, in the test with CHIKV p62-E1, the dissociation constant Kd worked out at 0.48 nM, the off-rate (koff) was found to be 0.000188 s⁻¹, the on-rate constant (kon) stood at 390000 M⁻¹ s⁻¹ and the “t1/2” value amounted to 62 min.

B2: 3E23 (antibody, V domains shown)
VH: QVQLVQSGPGLVKPSDTLSLTCSVSSDALRSRSYYWGWVRQPPGKGLEWIGTVSYSGGTYYNPSLQSRVTVSVDTSKNHFSLRLNSVTAADAAVYYCARSYFYDGSGYYYLSYFDSWGQGTLVTVSS
VL: QAVVTQEPSLTVSPGGTVTLTCASSTGAVTSGHYPNWFQQKPGQPPRALIYSTDNKHSWTPARFSGSLLGVKAALTLSDVQPEDEADYYCLLHFGGVVVFGGGTKLTVL
B2: in the test with CHIKV p62-E1, the koff was determined as 0.000267 s⁻¹ and the “t1/2” value was 43 min.

B3: 5O14 (antibody, V domains shown)
VH: QVQLVQSGGRVVQAGRSLRLSCAASGFTFSMYGVHWVRQAPGKGLEWVAVIWNDGSKEYYGDSVKGRFTISRDNSRNTLYLQMNSLRVDDTAVYFCARDGIPDPERGDYGGLDYWGQGTLVTVSS
VL: QTVVTQFPSSPFASVGDGVTITCRARQSISSYVNWYQQKPGKAPKLLIYATSSLQSGVPSRFSGSGYGTDFTLTISGLQPEDFATYYCQQSYSFPRTFGQGTKVEIK
On to B3, for which, in test [1], the “Neutralization (FRNT), EC50” value is 6.7 ng/mL. Besides, the “Neutralization (FRNT), EC50” value in test [2] is 6.2 ng/mL. In addition, the “Neutralization (FRNT), EC50” value in test [3] amounted to 17.3 ng/mL. The “Neutralization (FRNT), EC50” value in test [4] turned out to be 12.1 ng/mL. In addition, in the test with CHIKV p62-E1, the Kd is 1.15 nM, the dissociation rate constant (koff) was 0.000911 s⁻¹, the on-rate constant (kon) came to 790000 M⁻¹ s⁻¹ and the “t1/2” value is 13 min.

B4: 1L1 (antibody, V domains shown)
VH: QVQLVQSGPTLVKPTQTLTLTCTFSGFSLSISGVGVGWIRQPPGKALEWLALIYWDDDKRYSPSLKSRLTITKDTSENQVVLTMTNMDPVDTATYYCAHSMTKGGAIYGQAYFEYWGQGTLV
VL: PSPALEPDSDVGGYNYVSWYQQHPGKAPKLIIYDVTDRPSGVSNRFSASKSANTASLTISGLQAEDEADYYCSSYTSSST
For the molecule B4, in the test with CHIKV p62-E1, the Kd stood at 3.79 nM, the koff turned out to be 0.000273 s⁻¹, the kon came out at 88000 M⁻¹ s⁻¹ and the “t1/2” value came out at 42 min.

B5: 3A2 (antibody, V domains shown)
VH: QVQLVQSGGGVVQPGRSLRLSCAASGFTFSNYVMEWVRQAPGKGLEWVAVISYDGSNKYYADSVKGRFTISRDNSKNTLYLQMNSLRAEDTAVYYCARSEWESSYGSGNYYTDYFYYYAMDVWGPGTLVTVSS
VL: QAVVTQSPLSLPVTPGEPASISCRSNQSLLRGIRYNYLDWYLQKPGQSPQLLIYLGSNRASGVPDRFSGSGSATDFTLKISRVEAEDVGVYYCMQALQTPTTFGQGTRLEIK
As to B5, in the test with CHIKV p62-E1, binding was put at a Kd of 4.78 nM, the koff came to 0.00101 s⁻¹, the kon is 212000 M⁻¹ s⁻¹ and the “t1/2” value turned out to be 11 min.

B6: 2D12 (antibody, V domains shown)
VH: QVQLVQSGAEVKKPGASVKVSCKASGYSFNIYGISWVRQAPGQGLEWMGWISAYNGNTNYAQKLQGRVTMTTDTSTSTAYMELRSLRSDDTAVYYCARPLWGEFYYDIWGQGTLVTVSS
VL: QAVVTQSPGTLSLSPGERATLSCRASQSVSSGYSAWYQQKPGQAPRLLIYGASKRAAGIPDRFSGSGSGTDFTLTISRLEPEDFAVYYCQLFATSPPPFGQGTRLEIK
Consider B6, for which, in the test with CHIKV p62-E1, binding was put at a Kd of 0.49 nM, the koff was roughly 0.00086 s⁻¹, the on-rate (kon) was found to be 1.75e+06 M⁻¹ s⁻¹ and the “t1/2” value is 13 min.

B7: 2B4 (antibody, V domains shown)
VH: QVQLVQSGSELKKPGASVKVSCKASGYSFTSYSINWVRQAPGQGPEWMGWIDTNTGNPTYAQDFAGRFVFSLDTSVTTAYLQISSLKAGDTAVYYCATYYVDLWGSYRQDYYGMDVWGH
VL: QSVLTQPPSASGTPGQRVTISCSGGSSNIGSNPVNWYQMVPGTAPKLLLYTNNQRPSGVPDRFSGSKSGTSASLAINGLQSEDEADYYCAVWDDSLSGRWVFGGGTKVTVL
With B7, the “Neutralization (FRNT), EC50” value was 3.2 ng/mL in test [1], 7 ng/mL in test [2], 6.5 ng/mL in test [3] and 5.6 ng/mL in test [4].

B8: 4J21 (antibody, V domains shown)
VH: QVQLVQSGSELKKPGASVKVSCKASGYSFTSYSINWVRQAPGQGPEWMGWIDTNTGNPTYAQDFAGRFVFSLDTSVTTAYLQISSLKAGDTAVYYCATYYVDLWGSYRQDYYGMDVWGHGTLVTVSS
VL: QSVVTQPPSVSGTPGQGVTISCSGGSSNIGSNPVNWYQMVPGTAPKLLLYTNNQRPSGVPDRFSGSKSGTSASLAINGLQSEDEADYYCAVWDDSLSGRWVFGGGTKLTVL
Regarding B8, in test [1], the “Neutralization (FRNT), EC50” value was found to be 5.2 ng/mL. In addition, the “Neutralization (FRNT), EC50” value in test [2] stood at 7.2 ng/mL. In test [3], the “Neutralization (FRNT), EC50” value was 7.7 ng/mL. In addition, the “Neutralization (FRNT), EC50” value in test [4] is 7.4 ng/mL. In the test with CHIKV p62-E1, binding was put at a Kd of 0.54 nM, the koff came to 6.2e-05 s⁻¹, the kon was determined as 119000 M⁻¹ s⁻¹ and the “t1/2” value was found to be 186 min.

B9: 4N12 (antibody, V domains shown)
VH: QVQLVQSGAEVKKPGASVKVSCKVSGYILSKLSVHWVRQAPGKGLEWMGGSEREDGETVYAQKFQGRISLTEDTSIETAYMELSSLSSEDTAVYYCATGGFWSMIGGNGVDYWGQGTLVTVSS
VL: QAVVTQSPSSLPASVGDRVTITCRASQDIRNNLGWYQQKPGKAPERLIYGTSNLQSGVPSRFSGSGSGTEFTLTISSLQPEDFATYYCLQHNSYPPTFGRGTKVEIK
For the molecule B9, in the test with CHIKV p62-E1, the Kd came to 0.95 nM, the koff stood at 0.000118 s⁻¹, the kon is 124000 M⁻¹ s⁻¹ and the “t1/2” value worked out at 98 min.

B10: 2C2 (antibody, V domains shown)
VH: QVQLVQSGGGLVQPGRSLTLSCAASGFTFDVYAMHWVRQAPGKGLEWVAGISWNSGSVGYADSMKGRFTISRDNAKNSLYLQINSLRAEDTALYYCAKAFWFGELSGYGMDVWGQGTLVTVSS
VL: QAVVTQPPSASGFPGQSVTISCTGTSSDVGSYNYVSWYQQHPGKAPKLIIYAVTRRPSGVPERFSGSKSGNTASLTVSGLQAEDEADYYCTSYAGNNKDVFGTGTKVTVL
B10: in test [1], the “Neutralization (FRNT), EC50” value is greater than 10000 ng/mL. In addition, in test [3], the “Neutralization (FRNT), EC50” value was greater than 10000 ng/mL. For the same molecule, in test [4], the “Neutralization (FRNT), EC50” value was greater than 10000 ng/mL. Also, in the test with CHIKV p62-E1, the equilibrium dissociation constant (Kd) was 4.59 nM, the koff came out at 0.000608 s⁻¹, the kon was 154000 M⁻¹ s⁻¹ and the “t1/2” value came to 19 min.

B11: 3B4 (antibody, V domains shown)
VH: QVQLEESGPTLVKPTQTLTLTCSFSGFSLTTTGVTVGWIRQPPGKALEWLALIYWDDDKRYSPSLKSRLTITKDTSKNQVVLTMTNMDPVDTATYYCAHSTGYYDSSGYRGALDAFAVWGQGTLVTVSS
VL: QIVVTQFPDSPAVSLGERATINCKSSQSVLYHSNNKNYLAWYQQKPGQPPNLLIYWASARQSGVPDRFSGSGSGTDFTLTISSLQAEDVAVYYCQQYYSTPYTFGQGTKLEIK
On to B11, for which, in the test with CHIKV p62-E1, the equilibrium dissociation constant (Kd) was found to be 0.54 nM, the koff was determined as 0.000156 s⁻¹, the on-rate (kon) is 291000 M⁻¹ s⁻¹ and the “t1/2” value worked out at 74 min.

B12: 4J14 (antibody, V domains shown)
VH: QVQLVQSGAEVKKPGSSVKVSCKASGGTSSTYAISWVRQAPGQGLEWMGGSIPVFATVNYAQKFQGRLTITADESTSTVYMELSSLRSEDTAVYFCASPYCSSMNCYTTFYYFDFWGQGTLVTVSS
VL: QAVVTQPASVFGFPGQSITISCTGTSSDFGTYNYVSWYQQHPGQAPKLMIFDVSNRPSGVSNRFSGSKSGNTASLTISGLQAEDEASYYCSSYTSGSTLYGGGTKLTVL
For the molecule B12, in the test with CHIKV p62-E1, the Kd was found to be 9.94 nM, the koff is 0.00153 s⁻¹, the association rate constant (kon) turned out to be 161000 M⁻¹ s⁻¹ and the “t1/2” value came to 8 min.

For the origin of these results see US20180079802A1 (VANDERBILT UNIVERSITY, published 2018).
